{"source": "patent US20120237518A1", "about": "(Kyowa Kirin, published 2012)", "key": {"[1]": {"target": "T1, Mutant A, Trop-2 extracellular region lacking only domain I, fused to FLAG tag and Fc (human)", "T1 construct": "Expressed in HEK293F", "T1 sequence (chain, as listed by the source mutant limits assumed)": "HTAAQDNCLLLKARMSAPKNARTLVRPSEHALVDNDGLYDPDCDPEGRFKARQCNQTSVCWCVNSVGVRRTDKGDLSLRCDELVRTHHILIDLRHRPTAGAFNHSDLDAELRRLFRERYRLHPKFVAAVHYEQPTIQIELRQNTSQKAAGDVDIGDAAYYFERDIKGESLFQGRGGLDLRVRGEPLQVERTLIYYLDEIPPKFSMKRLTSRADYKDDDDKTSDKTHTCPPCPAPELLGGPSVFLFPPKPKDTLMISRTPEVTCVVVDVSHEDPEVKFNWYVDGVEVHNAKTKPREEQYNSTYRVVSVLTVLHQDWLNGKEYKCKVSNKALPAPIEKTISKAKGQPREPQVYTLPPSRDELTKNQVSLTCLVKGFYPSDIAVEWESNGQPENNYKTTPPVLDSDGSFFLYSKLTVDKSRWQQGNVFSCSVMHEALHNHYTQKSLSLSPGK", "assay": "Western blot, cAR47A6.4.2 as primary antibody, Mutant A in lane 2, non-reducing and reducing SDS-PAGE [b]", "experimental": "(§1) Each protein of Trop-2/FLAG/Fc, Mutant A, Mutant B, or Mutant C prepared in this Example 2 was electrophoresed under reducing condition (treatment of samples in the presence of 10 mmol/l DTT at 95° C. for 5 minutes) or non-reducing condition (treatment of samples in the absence of DTT at room temperature for 10 minutes) by an SDS-PAGE method. The proteins in the gel were transferred to polyvinylidene difluoride (PVDF) membrane at 200 mA for 1 hour using a semi-dry method.\n(§2) After the blocking of the PVDF membrane was carried out using PBS containing 5% BSA at room temperature for 1 hour, the PVDF membrane was soaked in the primary antibody solution which was prepared with TBST [an aqueous solution which was prepared by diluting Tris buffered saline (10× concentration) (pH 7.4) manufactured by Nakarai Tesque Inc.) ten-fold and further adding 0.1% concentration of 0.05% polyoxyethylene (20) sorbitan monolaurate (manufactured by Wako Pure Chemical Industries, Ltd., equivalent to ICI Inc.'s trademark Tween 20)] comprising 0.1% BSA to react for 1 hour at room temperature or overnight at 4° C.\n(§3) Using the imaging system LAS4000 mini (manufactured by Fujifilm), the luminescence images were obtained. […]"}, "[2]": {"target": "T2, Mutant B, Trop-2 extracellular region lacking domain I and domain II, fused to FLAG tag and Fc (human)", "T2 construct": "Expressed in HEK293F", "T2 sequence (chain, as listed by the source mutant limits assumed)": "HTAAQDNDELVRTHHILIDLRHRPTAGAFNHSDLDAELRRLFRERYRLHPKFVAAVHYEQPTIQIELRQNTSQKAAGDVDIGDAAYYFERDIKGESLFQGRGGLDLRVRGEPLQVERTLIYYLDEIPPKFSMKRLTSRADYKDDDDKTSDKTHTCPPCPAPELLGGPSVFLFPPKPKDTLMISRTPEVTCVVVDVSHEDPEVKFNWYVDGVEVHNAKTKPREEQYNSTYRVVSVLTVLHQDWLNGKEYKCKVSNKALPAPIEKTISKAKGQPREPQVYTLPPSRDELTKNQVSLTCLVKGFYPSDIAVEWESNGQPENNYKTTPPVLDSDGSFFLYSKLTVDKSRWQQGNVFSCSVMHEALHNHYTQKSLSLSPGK", "assay": "Western blot, cAR47A6.4.2 as primary antibody, Mutant B in lane 3, non-reducing and reducing SDS-PAGE [b]", "experimental": "as §1, §2, §3"}, "[3]": {"target": "T3, Trop-2/FLAG/Fc, fusion protein of Trop-2 extracellular region, FLAG tag and Fc (human)", "T3 construct": "Expressed in HEK293F; The encoding DNA carries a secretion signal", "assay": "Western blot, cAR47A6.4.2 as primary antibody, Trop-2/FLAG/Fc in lane 1, non-reducing and reducing SDS-PAGE [b]", "experimental": "as §1, §2, §3"}, "[4]": {"target": "T4, recombinant human Trop-2/Fc/His fusion protein (manufactured by R&D) (human, UniProt P09758 27-274, limits assumed)", "T4 construct": "Bought reagent; also called Trop-2/Fc/His chimeric protein; recombinant Trop-2", "T4 sequence": "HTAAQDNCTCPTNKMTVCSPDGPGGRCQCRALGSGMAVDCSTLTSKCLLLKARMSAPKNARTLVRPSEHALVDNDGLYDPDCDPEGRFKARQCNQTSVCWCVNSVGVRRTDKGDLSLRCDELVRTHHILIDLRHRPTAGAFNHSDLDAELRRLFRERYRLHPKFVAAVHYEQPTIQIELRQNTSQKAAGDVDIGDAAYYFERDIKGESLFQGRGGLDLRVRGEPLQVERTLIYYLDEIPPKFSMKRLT", "assay": "competition binding ELISA on immobilised Trop-2/Fc/His; cAR47A6.4.2 varied, competed antibody MOv16 fixed at 0.3 µg/ml [b]", "experimental": "(§4) Into a 96-well ELISA plate (manufactured by Greiner), 2 μg/ml of a recombinant human Trop-2/Fc/His chimeric protein (manufactured by R&D) was dispensed at 50 μl/well, and allowed to stand at 4° C. overnight for immobilization. After washing the plate with PBS, BSA-PBS was added thereto at 100 μl/well and allowed to stand at room temperature for 1 hour for blocking the active groups.\n(§5) After washing the plate with Tween-PBS, a peroxidase-labeled rabbit anti-human IgG antibody (manufactured by American Qualex) was added at 50 μl/well as the second antibody and allowed to stand at room temperature for 1 hour. After washing the plate with Tween-PBS, the ABTS [2,2-Azino-bis(3-Ethyl benzothiazol-6-Sulfonic Acid)ammonium)] substrate solution [1 mmol/l ABTS, 0.1 mol/l citric acid buffer (pH 4.2), 0.1% H₂O₂] was added at 50 μl/well for color development, and the chromogenic reaction was stopped by adding a 5% SDS (Sodium lauryl sulfate) solution at 50 μl/well. Thereafter, the value of the absorbance of OD415 nm was measured by a plate reader Emax (manufactured by Molecular Devices, LLC.)."}, "[5]": {"target": "T4, recombinant human Trop-2/Fc/His fusion …", "assay": "competition binding ELISA on immobilised Trop-2/Fc/His; cAR47A6.4.2 varied, competed antibody YY-01 fixed at 0.3 µg/ml [d]", "experimental": "as §4, §5"}}, "data": [{"binder": "cAR47A6.4.2, human IgG1 chimeric antibody of anti-Trop-2 mouse monoclonal antibody AR47A6.4.2 (antibody, V domains shown, Variable regions of AR47A6.4.2 with human IgG1 constant region (pKANTEX93), made in CHO/DG44 cells, fucose content 100%) VH: QIQLVQSGPELKKPGETVKISCKASGYTFTNYGMNWVKQAPGKGLKWMGWINTKTGEPTYAEEFKGRFAFSLETSASTAYLQINNLKKEDTATYFCGRGGYGSSYWYFDVWGAGTTVTVSS VL: DIVMTQSHKFMSTSVGDRVSITCKASQDVSIAVAWYQQKPGQSPKVLIYSASYRYTGVPDRFTGSGSGTDFTFTISRVQAEDLAVYYCQQHYITPLTFGAGTKLELK", "values": [{"measurement": "binding result", "setting": "[1]", "value": "binds"}, {"measurement": "binding result", "setting": "[2]", "value": "binds"}, {"measurement": "binding result", "setting": "[3]", "value": "binds"}, {"measurement": "IC50 (read off the curve)", "setting": "[4]", "value": "~4", "unit": "µg/mL"}, {"measurement": "IC50 (read off the curve)", "setting": "[5]", "value": "~3", "unit": "µg/mL"}]}]}
